In article PMC2408619 (2008) one finds koff and Kd data, which are given here for two molecules.

To fix the notation:
B2: Pertactin on the surface of Bvg+ B. bronchiseptica RB53 (receptor)
chain: DWNNQSIIKAGERQHGIHIKQSDGAGVRTATGTTIKVSGRQAQGVLLENPAAELRFQNGSVTSSGQLFDEGVRRFLGTVTVKAGKLVADHATLANVSDTRDDDGIALYVAGEQAQASIADSTLQGAGGVRVERGANVTVQRSTIVDGGLHIGTLQPLQPEDLPPSRVVLGDTSVTAVPASGAPAAVSVFGANELTVDGGHITGGRAAGVAAMDGAIVHLQRATIRRGDAPAGGAVPGGAVPGGAVPGGFGPLLDGWYGVDVSDSTVDLAQSIVEAPQLGAAIRAGRGARVTVSGGSLSAPHGNVIETGGGARRFPPPASPLSITLQAGARAQGRALLYRVLPEPVKLTLAGGAQGQGDIVATELPPIPGASSGPLDVALASQARWTGATRAVDSLSIDNATWVMTDNSNVGALRLASDGSVDFQQPAEAGRFKVLMVDTLAGSGLFRMNVFADLGLSDKLVVMRDASGQHRLWVRNSGSEPASANTMLLVQTPRGSAATFTLANKDGKVDIGTYRYRLAANGNGQWSLVGAKAPPAPKPAPQPGPQPGPQPPQPPQPPQRQPEAPAPQPPAGRELSAAANAAVNTGGVGLASTLWYAESNALSKRLGELRLNPDAGGAWGRGFAQRQQLDNRAGRRFDQKVAGFELGADHAVAVAGGRWHLGGLAGYTRGDRGFTGDGGGHTDSVHVGGYATYIANSGFYLDATLRASRLENDFKVAGSDGYAVKGKYRTHGVGASLEAGRRFAHADGWFLEPQAELAVFRVGGGAYRAANGLRVRDEGGSSVLGRLGLEVGKRIELAGGRQVQPYIKASVLQEFDGAGTVRTNGIAHRTELRGTRAELGLGMAAALGRGHSLYASYEYSKGPKLAMPWTFHAGYRYSW

In experiment [1] the target is T1, Biotinylated Prn-E (pertactin residues 38-640 with N-terminal biotinylation sequence) (B. bronchiseptica, UniProt Q03035 38-640, biotin (in vivo biotinylation of the N-terminal biotinylation sequence)).
T1 chain: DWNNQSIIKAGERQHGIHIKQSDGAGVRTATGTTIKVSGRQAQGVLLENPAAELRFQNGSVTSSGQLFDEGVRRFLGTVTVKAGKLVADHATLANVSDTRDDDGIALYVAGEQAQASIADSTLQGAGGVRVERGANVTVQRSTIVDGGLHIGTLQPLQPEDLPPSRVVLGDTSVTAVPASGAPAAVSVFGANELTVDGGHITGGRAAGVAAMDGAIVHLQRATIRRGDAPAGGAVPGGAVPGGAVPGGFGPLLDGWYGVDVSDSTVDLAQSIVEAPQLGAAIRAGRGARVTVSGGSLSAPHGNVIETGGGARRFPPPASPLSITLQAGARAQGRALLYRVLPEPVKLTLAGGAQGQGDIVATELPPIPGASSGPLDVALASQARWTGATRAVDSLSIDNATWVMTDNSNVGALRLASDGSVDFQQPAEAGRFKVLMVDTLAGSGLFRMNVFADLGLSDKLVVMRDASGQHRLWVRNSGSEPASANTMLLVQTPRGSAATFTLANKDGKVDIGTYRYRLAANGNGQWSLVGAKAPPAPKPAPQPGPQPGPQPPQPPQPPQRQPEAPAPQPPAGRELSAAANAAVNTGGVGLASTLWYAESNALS
The experiment can be described thus: SPR.

For experiment [2], the target named is B2.
In experiment [3] the target is BPP-6 phage displaying Mtd-P6 (Bordetella bacteriophage BPP-6, UniProt Q775D6).

B1: BPP-1 phage displaying Mtd-P1 (other)
chain: MSTAVQFRGGTTAQHATFTGAAREITVDTDKNTVVVHDGATAGGFPLARHDLVKTAFIKADKSAVAFTRTGNATASIKAGTIVEVNGKLVQFTADTAITMPALTAGTDYAIYVCDDGTVRADSNFSAPTGYTSTTARKVGGFHYAPGSNAAAQAGGNTTAQINEYSLWDIKFRPAALDPRGMTLVAGAFWADIYLLGVNHLTDGTSKYNVTIADGSASPKKSTKFGGDGSAAYSDGAWYNFAEVMTHHGKRLPNYNEFQALAFGTTEATSSGGTDVPTTGVNGTGATSAWNIFTSKWGVVQASGCLWTWGNEFGGVNGASEYTANTGGRGSVYAQPAAALFGGAWNGTSLSGSRAALWYSGPSFSFAFFGARGVCDHLILE
Turning to B1, the koff in experiment [1] was 0.000636 s⁻¹. The molecule also registered a Kd in experiment [2] of 3.7 pM.

In experiment [3], B2 registered a Kd of 0.059 pM.
